Blank lines part the entries; values can stand above or below the molecule they belong to.
Legend:
[1] = target: human B lymphocyte-restricted differentiation antigen Bp35 (CD20) (human) (UniProt P11836); assay: radioimmunoassay: hybridoma medium against 10 ng I-125 labeled anti-CD20 Bl on 100,000 SB cells
[2] = target: human B lymphocyte-restricted differentiation antigen Bp35 (CD20) (human) (UniProt P11836); assay: direct binding of I-125 radiolabeled antibody to CD20 positive B cells, Scatchard plot; printed as apparent affinity constant (Kap)
[3] = target: T1, human B lymphocyte-restricted differentiation antigen Bp35 (CD20) (human, UniProt P11836 1-297); assay: as above
T1 construct: whole, on cells; Presented on SB cells, other CD20 positive B cell lines or acetone-fixed human tissues; also called CD20 antigen; CD20 surface antigen
T1 sequence (looked up): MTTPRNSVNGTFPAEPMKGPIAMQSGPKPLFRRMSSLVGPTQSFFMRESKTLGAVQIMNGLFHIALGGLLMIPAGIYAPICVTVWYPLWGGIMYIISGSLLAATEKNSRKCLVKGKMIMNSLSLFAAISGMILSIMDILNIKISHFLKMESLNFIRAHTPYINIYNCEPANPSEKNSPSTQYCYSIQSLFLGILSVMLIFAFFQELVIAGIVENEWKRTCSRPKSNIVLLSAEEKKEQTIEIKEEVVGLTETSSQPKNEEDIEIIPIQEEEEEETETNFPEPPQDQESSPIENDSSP

- % inhibition of I-125 labeled anti-CD20 Bl binding [1]: 50%
- Kd [2]: 3.5 nM
Molecule: murine anti-CD20 monoclonal antibody 2B8

- Kd [3]: 5.2 nM
B1: chimeric anti-CD20 antibody produced by the CHO transfectoma (antibody, V domains shown)
VH: QVQLQQPGAELVKPGASVKMSCKASGYTFTSYNMHWVKQTPGRGLEWIGAIYPGNGDTSYNQKFKGKATLTADKSSSTAYMQLSSLTSEDSAVYYCARSTYYGGDWYFNVWGAGTTVTVSA
VL: QIVLSQSPAILSASPGEKVTMTCRASSSVSYIHWFQQKPGSSPKPWIYATSNLASGVPVRFSGSGSGTSYSLTISRVEAEDAATYYCQQWTSNPPTFGGGTKLEIK
notes: domain: heavy chain gamma 1 constant region (Kabat numbering amino acids 114-478); also called C2B8; CHO produced chimeric anti-CD20; not shown: human immunoglobulin light chain kappa constant region, Kabat numbering amino acids 108-214, allotype Km 3

- Kd [3]: 7.4 nM
B2: chimeric anti-CD20 antibody produced by the SP2/0 transfectoma (antibody, V domains shown)
VH: B1 VH
VL: B1 VL
notes: domain: heavy chain gamma 1 constant region (Kabat numbering amino acids 114-478); Same construct as m2, but produced in SP2/0 mouse myeloma cells; also called SP2/0 produced antibody; not shown: human immunoglobulin light chain kappa constant region, Kabat numbering amino acids 108-214, allotype Km 3
